# Tests used:
# [1] = tested on: blasts; test: Phase I/II trial: blasts in bone marrow and peripheral blood (cytomorphology, flow cytometry, MRD); format: in vivo, human
# Method: (§1) FIGS. 6A-6C Bone marrow (BM) blast load was assessed by cytomorphology (FIG. 6A), and flow cytometry using leukemia-associated immunophenotype (LAIP) gating (FIG. 6B) and blast gating (SSClow CD45dim; FIG. 6C). The latter method was used to determine measurable/minimal residual disease (MRD) status of the patient.
# as §1, with “7A-7C Peripheral blood (PB)” for “6A-6C Bone marrow (BM)”, “7A),” for “6A),”, “7B)” for “6B)”, “CD45 dim;” for “CD45dim;”, “7C).” for “6C).”
# Minimal residual disease (MRD) assessments were performed on bone marrow aspirates and/or whole blood collected at time points as specified in FIG. 5. Flow cytometry was utilized as the primary method of MRD analysis. Suitable flow cytometry markers for MRD assessment and determining AML subtype include CD16, CD13, CD34, CD117, CD11 b, CD10, HLA-DR, CD45, CD35, CD64, IREM-2, CD36, CD105, CD14, CD33, CD71, CD36, CD105, CD33, CD71, cTdT, CD56, CD7, CD19, cMPO, cLactoferrin, cLysozyme. An additional panel was used as a part of the trial, focusing on CD70, CD27 expression as well as markers indicative of stem cell potential or myeloid differentiation: CD27, CD70, CD34, CD117, CD11 b, HLA-DR, CD45, CD38, and CD123. When available, flow cytometry results were compared to other molecular approaches such as polymerase chain reaction (PCR) test.
# For each patient, the number of blasts in bone marrow and peripheral blood were assessed at various time-points as outlined in FIG. 5.
# To assess bone marrow blasts, bone marrow aspirates taken at the various time points were analysed. Methylcellulose colony assays using FACS sorted monocytes (mononuclear cells (CD45^dim) were selectively sorted by excluding doublets, dead cells and lymphocytes using Annexin V and antibodies for CD19 and CD4/CD8) were used to assess the number of LSCs in the bone marrow. In addition, bone marrow blast percentages were also assessed by cell morphology and flow cytometric analysis.
# [2] = Serum pharmacokinetics of ARGX-110 (ELISA); format: in vivo, human
# Method: FIG. 11 The serum concentration of ARGX-110 was analyzed using a validated enzyme-linked immunosorbent assay (ELISA) method. Individual patient PK plots are provided for 10 mg/kg cohort. The PK plot presents data for ARGX-110 cycle1 (D-14 pre-dose until Cycle1 D1 pre-dose).
# The serum concentrations of ARGX-110 were analysed using a validated enzyme-linked immunosorbent assay (ELISA) method. The following pharmacokinetic parameters were assessed: • Cmax: maximum observed concentration; Ctrough: trough concentration; AUC∞: area under the serum concentration-time curve from time zero to infinity; AUCtau: area under the serum concentration-time curve during the dosing interval; Vd: apparent volume of distribution; CL: total systemic clearance of drug after IV administration; t1/2: half-life.
# The serum concentration of ARGX-110 was analysed using a validated enzyme-linked immunosorbent assay (ELISA) method. FIG. 11 provides individual patient PK plots for the 10 mg/kg cohort. The PK plot presents data for ARGX-110 cycle 1 (D-14 pre-dose until Cycle1 D1 pre-dose).
# [3] = target: T1, CD70 (Homo sapiens, UniProt P32970); conditions: cited from earlier work
# T1 sequence (P32970 1-193): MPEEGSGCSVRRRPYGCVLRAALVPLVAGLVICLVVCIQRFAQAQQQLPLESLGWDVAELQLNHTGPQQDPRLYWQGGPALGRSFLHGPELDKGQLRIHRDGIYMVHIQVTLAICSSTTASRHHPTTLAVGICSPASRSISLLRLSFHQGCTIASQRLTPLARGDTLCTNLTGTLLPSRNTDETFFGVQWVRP
# [4] = tested on: CD70-expressing tumor cells; conditions: cited from earlier work
# [5] = patient 1001001, 1 mg/kg with AZA, C3D1
# [6] = patient 1001001, 1 mg/kg with AZA, C4D1
# [7] = patient 1001002, 1 mg/kg with AZA, C2D17
# [8] = patient 1001002, single dose 1 mg/kg
molecule,measurement,setting,value
"ARGX-110: IgG1 anti-CD70 antibody with defucosylated Fc region; VH SEQ ID NO: 4, VL SEQ ID NO: 8 (antibody, V domains shown, IgG1, defucosylated Fc; Custom antibody fragment) VH: EVQLVESGGGLVQPGGSLRLSCAASGFTFSVYYMNWVRQAPGKGLEWVSDINNEGGTTYYADSVKGRFTISRDNSKNSLYLQMNSLRAEDTAVYYCARDAGYSNHVPIFDSWGQGTLVTVSS VL: QAVVTQEPSLTVSPGGTVTLTCGLKSGSVTSDNFPTWYQQTPGQAPRLLIYNTNTRHSGVPDRFSGSILGNKAALTITGAQADDEAEYFCALFISNPSVEFGGGTQLTVLG",PB blast percentage,"[1]; following monotherapy, C1D1 vs earlier",reduced
same,bone marrow blasts according to MRD criteria,[1]; in vivo,significantly reduced
same,bone marrow blast percentage,"[1]; majority of patients, by C1D1 following monotherapy",at least partially or completely reduced by C1D1
same,BM blasts by flow cytometry,[1]; [5],2.8%
same,MRD for peripheral blood,[1]; [5],0.3%
same,"minimal residual disease analysis (MRD), bone marrow",[1]; [5],0.2%
same,peripheral blood blast percentage by cell morphology,[1]; [6],0%
same,peripheral blood blast percentage by flow cytometry,[1]; [6],0.8%
same,peripheral blood MRD class,"[1]; patient 1001001, 1 mg/kg with AZA, C4D17",MRD-negative
same,peripheral blood blasts,"[1]; patient 1001001, 1 mg/kg with AZA, after first complete cycle (C2D1)",cleared
same,blast cell populations by cell morphology and flow cytometry,"[1]; patient 1001001, single (loading) dose 1 mg/kg",reduction in bone marrow and in peripheral blood
same,percentage of blasts in peripheral blood by cell morphology,[1]; [7],0%
same,percentage of blasts in peripheral blood by flow cytometry,[1]; [7],0.8%
same,overall blast percentage in peripheral blood,"[1]; patient 1001002, 1 mg/kg with AZA, end of cycle 1 (C2D1)",approaching zero
same,overall blast percentage in peripheral blood,"[1]; patient 1001002, after loading dose 1 mg/kg (C1D1 vs screening)",fell
same,percentage of total blasts in bone marrow by cell morphology,[1]; [8],an increase was observed
same,percentage of total blasts in bone marrow by flow cytometry,[1]; [8],appeared to be reduced
same,blast percentage,"[1]; patient 1001003, C1D1",stable
same,peripheral blasts,"[1]; patient 1001003, with AZA, 1 cycle (C2D1)",no peripheral blasts
same,PB blast percentage,"[1]; under combination therapy with aza, from C1D1 onwards",further reduced
same,half-life,[2]; 10 mg/kg,approximately 9.2 days
same,Cmax and AUC over the dose range studied,[2]; all cohorts,dose proportionality
same,CD70-induced CD27 signalling,[3],inhibit CD70-induced CD27 signalling
same,interaction of CD70 with CD27,[3],inhibit the interaction of CD70 with its receptor CD27
same,antibody dependent cellular phagocytosis (ADCP),[4],increase antibody dependent cellular phagocytosis (ADCP) of CD70-expressing cells
same,lysis via ADCC and CDC,[4],lyse CD70-expressing tumor cells
same,ADCC functionality,[4]; defucosylated Fc (Potelligent),increased ADCC functionality compared to a fucosylated counterpart
